Values of other authors as cited in PMC9214263.

Target: TNFα (Homo sapiens) (UniProt P01375)
Experiment: KinExA

TNFα (Homo sapiens), sequence (P01375 77-233): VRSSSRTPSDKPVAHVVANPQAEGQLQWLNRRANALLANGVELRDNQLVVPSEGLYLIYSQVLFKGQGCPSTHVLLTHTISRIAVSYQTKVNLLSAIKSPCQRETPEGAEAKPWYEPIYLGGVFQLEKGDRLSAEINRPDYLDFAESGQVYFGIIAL

## infliximab
  Kd: 4.2 pM
